Laboratory results: publication PMC6197187

Target: Recombinant human Tau-40 protein (human) (UniProt P10636)
Assay: solution binding assay, then SDS-PAGE and western blotting; 1 µg tau and 1 µg recombinant apoE incubated 1 h at 37 °C in 20 µl PBS (pH 7.4); ended with sample buffer without 2-mercaptoethanol, boiled 5 min; immunoblot for tau (HT7) and apoE

Sequence of Recombinant human Tau-40 protein (human) (P10636 other isoform, or with tags, fused parts or gaps): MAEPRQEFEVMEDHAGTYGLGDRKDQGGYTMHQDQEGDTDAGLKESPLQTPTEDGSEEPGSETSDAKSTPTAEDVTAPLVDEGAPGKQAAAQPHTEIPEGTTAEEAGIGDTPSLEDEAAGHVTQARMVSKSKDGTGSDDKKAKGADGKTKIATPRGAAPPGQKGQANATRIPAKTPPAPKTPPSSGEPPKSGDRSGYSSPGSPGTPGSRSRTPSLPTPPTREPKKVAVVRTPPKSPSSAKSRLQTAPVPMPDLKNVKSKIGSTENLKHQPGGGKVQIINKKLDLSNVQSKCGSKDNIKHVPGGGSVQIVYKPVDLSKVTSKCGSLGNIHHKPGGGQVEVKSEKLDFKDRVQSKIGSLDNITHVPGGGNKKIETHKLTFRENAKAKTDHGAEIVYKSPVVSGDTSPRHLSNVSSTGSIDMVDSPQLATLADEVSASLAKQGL

## Recombinant human apoE2 protein (from UniProt P02649 19-317) (natural protein)
  N of band A: 2 tau per apoE
  N of band B: 2 apoE per tau
